Results reported in PMC8457375 (Chemical Science, 2021).

B1: S286Y^SseK1 (enzyme)
chain: MIPPLNRYVPALSKNELVKTVTNRDIQFTSFNGKDYPLCFLDEKTPLLFQWFERNPARFGKNDIPIINTEKNPYLNNIIKAATIEKERLIGIFVDGDFFPGQKDAFSKLEYDYENIKVIYRNDIDFSMYDKKLSEIYMENISKQESMPEEKRDCHLLQLLKKELSDIQEGNDSLIKSYLLDKGHGWFDFYRNMAMLKAGQLFLEADKVGCYDLSTNSGCIYLDADMIITEKLGGIYIPDGIAVHVERIDGRASMENGIIAVDRNNHPALLAGLEIMHTKFDADPYYDGVCNGIRKHFNYSLNEDYNSFCDFIEFKHDNIIMNTSQFTQSSWARHVQ
B2: N302Y^SseK2 (enzyme)
chain: MARFNAAFTRIKIMFSRIRGLISCQSNTQTIAPTLSPPSSGHVSFAGIDYPLLPLNHQTPLVFQWFERNPDRFGQNEIPIINTQKNPYLNNIINAAIIEKERIIGIFVDGDFSKGQRKALGKLEQNYRNIKVIYNSDLNYSMYDKKLTTIYLENITKLEAQSASERDEVLLNGVKKSLEDVLKNNPEETLISSHNKDKGHLWFDFYRNLFLLKGSDAFLEAGKPGCHHLQPGGGCIYLDADMLLTDKLGTLYLPDGIAIHVSRKDNHVSLENGIIAVNRSEHPALIKGLEIMHSKPYGDPYYDWLSKGLRHYFDGSHIQDYDAFCDFIEFKHENIIMNTSSLTASSWR

Experiments:
FADD^DD [1] = biological target: FADD^DD (UniProt Q13158)
FADD^DD [2] = biological target: FADD^DD (UniProt Q13158); assay: ITC
FADD^DD [3] = biological target: T1, FADD^DD (UniProt Q13158 97-181); assay: cell-based or functional assay
T1 sequence: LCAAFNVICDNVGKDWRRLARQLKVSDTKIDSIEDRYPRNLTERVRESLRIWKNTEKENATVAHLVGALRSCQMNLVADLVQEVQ

FADD^DD [4] = biological target: T1, FADD^DD; assay: ITC

Molecule | Km for FADD^DD, glycosylation kinetics (FADD^DD [1]) | Kd (FADD^DD [2]) | Km for FADD^DD, glycosylation kinetics, fold worse than that of NleB1^EHEC (FADD^DD [3]) | fold by which the Kd of NleB1^EHEC is better (FADD^DD [4])
NleB1^EHEC (enzyme) | 13 µM | 200 nM | – | –
B1 | – | – | 4.4 fold | ~6 fold
B2 | – | – | – | ~472 fold
